Measured values published in patent CN108586611A (UNIV JINAN; ZHUHAI TAINUO MAIBO BIOTECHNOLOGY CO LTD; …, dated 2018).

Target: 破伤风毒素 (tetanus toxin) (Clostridium tetani, UniProt P04958 2-1315)
Sequence (P04958 2-457 limits assumed, chain 1 of 2): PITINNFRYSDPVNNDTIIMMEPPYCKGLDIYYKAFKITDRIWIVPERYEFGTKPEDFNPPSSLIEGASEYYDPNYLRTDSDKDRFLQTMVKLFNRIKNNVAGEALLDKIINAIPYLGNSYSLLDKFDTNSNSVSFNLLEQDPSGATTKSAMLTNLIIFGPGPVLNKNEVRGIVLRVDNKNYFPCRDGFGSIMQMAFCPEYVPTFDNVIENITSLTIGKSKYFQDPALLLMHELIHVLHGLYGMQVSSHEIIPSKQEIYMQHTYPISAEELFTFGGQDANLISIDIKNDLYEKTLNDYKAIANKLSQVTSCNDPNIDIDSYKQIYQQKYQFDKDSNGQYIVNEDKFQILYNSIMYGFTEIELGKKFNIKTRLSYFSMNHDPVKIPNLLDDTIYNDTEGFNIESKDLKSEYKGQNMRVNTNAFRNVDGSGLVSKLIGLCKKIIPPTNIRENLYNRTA
Sequence (P04958 458-1315 limits assumed, chain 2 of 2): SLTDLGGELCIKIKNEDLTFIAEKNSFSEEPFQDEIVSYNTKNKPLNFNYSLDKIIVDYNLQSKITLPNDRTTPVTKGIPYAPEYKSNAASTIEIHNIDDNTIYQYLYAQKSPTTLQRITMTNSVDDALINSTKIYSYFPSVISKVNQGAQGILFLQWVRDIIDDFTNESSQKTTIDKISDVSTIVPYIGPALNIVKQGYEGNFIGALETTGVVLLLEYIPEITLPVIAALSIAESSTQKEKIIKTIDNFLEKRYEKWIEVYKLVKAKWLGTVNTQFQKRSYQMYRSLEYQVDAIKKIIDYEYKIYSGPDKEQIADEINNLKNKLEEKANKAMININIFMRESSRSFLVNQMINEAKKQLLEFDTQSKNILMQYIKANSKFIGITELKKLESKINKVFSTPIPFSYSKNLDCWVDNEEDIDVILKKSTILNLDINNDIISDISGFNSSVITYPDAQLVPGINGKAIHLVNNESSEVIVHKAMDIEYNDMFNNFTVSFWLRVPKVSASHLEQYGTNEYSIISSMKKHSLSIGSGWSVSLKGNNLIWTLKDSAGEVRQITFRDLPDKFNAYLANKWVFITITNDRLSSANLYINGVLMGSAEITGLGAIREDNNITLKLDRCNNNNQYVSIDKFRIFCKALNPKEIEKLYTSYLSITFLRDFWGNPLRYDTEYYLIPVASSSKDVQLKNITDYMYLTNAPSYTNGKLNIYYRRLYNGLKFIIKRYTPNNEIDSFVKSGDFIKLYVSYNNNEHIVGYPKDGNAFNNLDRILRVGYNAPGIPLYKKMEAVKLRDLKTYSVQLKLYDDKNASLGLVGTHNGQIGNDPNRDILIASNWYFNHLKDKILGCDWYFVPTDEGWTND

B1: TRN1014抗体 (重组全人源抗破伤风毒素单克隆抗体) (antibody, V domains shown)
VH: EVQLVESGGDLVPPGGSLRLSCVASGFTFRNYWMNWVRQAPGQGLQWVASIKDDGTESQYLESVKGRFTISRDNAKNSLSLQMDSLRAEDTALYFCTRVGGFYFGSERYYKGGDDVWGQGTTVTVSS
VL: DIVLTQSPSSLSASVGDRVTFTCRASQTISNYLHWYQQKPGQAPELLIFAASNRQGGVPSRFRGSGSGTDFTLTISPLEADDFATYYCQQSYSSPRTFGQGTKLEIK
- Kd: 1.1 nM
- koff: 6.07e-05 s⁻¹
- kon: 55100 M⁻¹ s⁻¹
